Data: article PMC5454376, “Molecular mechanism of Gαi activation by non-GPCR proteins with a Gα-Binding and Activating motif” (Nature Communications, 2017)

B1: Human His-Gαi3 WT [human] / Fluorescein-labelled GIV peptide (residues 1,671–1,701) [modified: 5,6-carboxyfluorescein coupled to the resin-bound peptide after chain elongation; 5,6-carboxyfluorescein coupled to the resin-bound … (parent)
chain 1: MGCTLSAEDKAAVERSKMIDRNLREDGEKAAKEVKLLLLGAGESGKSTIVKQMKIIHEDGYSEDECKQYKVVVYSNTIQSIIAIIRAMGRLKIDFGEAARADDARQLFVLAGSAEEGVMTPELAGVIKRLWRDGGVQACFSRSREYQLNDSASYYLNDLDRISQSNYIPTQQDVLRTRVKTTGIVETHFTFKDLYFKMFDVGGQRSERKKWIHCFEGVTAIIFCVALSDYDLVLAEDEEMNRMHESMKLFDSICNNKWFTETSIILFLNKKDLFEEKIKRSPLTICYPEYTGSNTYEEAAAYIQCQFEDLNRRKDTKEIYTHFTCATDTKNVQFVFDAVTDVIIKNNLKECGLY
chain 2: KTGSPGSEVVTLQQFLEESNKLTSVQIKSSS
B2: Human His-Gαi3 WT [human] / Fluorescein-labelled RGS12 GoLoco peptide (residues 1,185–1,221) [modified: 5,6-carboxyfluorescein coupled to the resin-bound peptide after chain elongation; 5,6-carboxyfluorescein coupled to the … (parent)
chain 1: B1 chain 1
chain 2: DEAEEFFELISKAQSNRADDQRGLLRKEDLVLPEFLR
B3: Human His-Gαi3 WT [human] / Fluorescein-labelled DAPLE peptide (residues 1,662–1,695) [modified: 5,6-carboxyfluorescein coupled to the resin-bound peptide after chain elongation; 5,6-carboxyfluorescein coupled to the … (parent)
chain 1: B1 chain 1
chain 2: SASPSSEMVTLEEFLEESNRSSPTHDTPSCRDDL

Variants of: B1
Assay: fluorescence polarisation
Settings: with Fluorescein-labelled GIV peptide (residues 1,671–1,701) [modified: 5,6-carboxyfluorescein coupled to the resin-bound peptide after chain elongation

Variant | ratio to parent
chain 1 MGCTLSAEDKAAVERSKMIDRNLREDGEKAAKEVKLALLGAGESGKSTIVKQMKIIHEDGYSEDECKQYKVVVYSNTIQSIIAIIRAMGRLKIDFGEAARADDARQLFVLAGSAEEGVMTPELAGVIKRLWRDGGVQACFSRSREYQLNDSASYYLNDLDRISQSNYIPTQQDVLRTRVKTTGIVETHFTFKDLYFKMFDVGGQRSERKKWIHCFEGVTAIIFCVALSDYDLVLAEDEEMNRMHESMKLFDSICNNKWFTETSIILFLNKKDLFEEKIKRSPLTICYPEYTGSNTYEEAAAYIQCQFEDLNRRKDTKEIYTHFTCATDTKNVQFVFDAVTDVIIKNNLKECGLY [chain 1 L37A] | 0.822
chain 1 MGCTLSAEDKAAVERSKMIDRNLREDGEKAAKEVKALLLGAGESGKSTIVKQMKIIHEDGYSEDECKQYKVVVYSNTIQSIIAIIRAMGRLKIDFGEAARADDARQLFVLAGSAEEGVMTPELAGVIKRLWRDGGVQACFSRSREYQLNDSASYYLNDLDRISQSNYIPTQQDVLRTRVKTTGIVETHFTFKDLYFKMFDVGGQRSERKKWIHCFEGVTAIIFCVALSDYDLVLAEDEEMNRMHESMKLFDSICNNKWFTETSIILFLNKKDLFEEKIKRSPLTICYPEYTGSNTYEEAAAYIQCQFEDLNRRKDTKEIYTHFTCATDTKNVQFVFDAVTDVIIKNNLKECGLY [chain 1 L36A] | 1.22
chain 1 MGCTLSAEDKAAVERSKMIDRNLREDGEKAAKEVKLLLAGAGESGKSTIVKQMKIIHEDGYSEDECKQYKVVVYSNTIQSIIAIIRAMGRLKIDFGEAARADDARQLFVLAGSAEEGVMTPELAGVIKRLWRDGGVQACFSRSREYQLNDSASYYLNDLDRISQSNYIPTQQDVLRTRVKTTGIVETHFTFKDLYFKMFDVGGQRSERKKWIHCFEGVTAIIFCVALSDYDLVLAEDEEMNRMHESMKLFDSICNNKWFTETSIILFLNKKDLFEEKIKRSPLTICYPEYTGSNTYEEAAAYIQCQFEDLNRRKDTKEIYTHFTCATDTKNVQFVFDAVTDVIIKNNLKECGLY [chain 1 L39A] | 5.3
chain 1 MGCTLSAEDKAAVERSKMIDRNLREDGEKAAKEVKLLLLGAGESGKSTIVKQMKIIHEDGYSEDECKQYKVVVYSNTIQSIIAIIRAMGRLKIDFGEAARADDARQLFVLAGSAEEGVMTPELAGVIKRLWRDGGVQACFSRSREYQLNDSASYYLNDLDRISQSNYIPTQQDVLRTRVKTTGIVETHFTFKDLYFKMFDVGGQRSERKKWIHCFEGATAIIFCVALSDYDLVLAEDEEMNRMHESMKLFDSICNNKWFTETSIILFLNKKDLFEEKIKRSPLTICYPEYTGSNTYEEAAAYIQCQFEDLNRRKDTKEIYTHFTCATDTKNVQFVFDAVTDVIIKNNLKECGLY [chain 1 V218A] | 0.623
chain 1 MGCTLSAEDKAAVERSKMIDRNLREDGEKAAKEVKLLLLGAGESGKSTIVKQMKIIHEDGYSEDECKQYKVVVYSNTIQSIIAIIRAMGRLKIDFGEAARADDARQLFVLAGSAEEGVMTPELAGVIKRLWRDGGVQACFSRSREYQLNDSASYYLNDLDRISQSNYIPTQQDVLRTRVKTTGIVETHFTFKDLYFKMFDVGGQRSERKKWIHCFEGVTAIIFCVALSDYDLVLAEDEEMNRMHESMKHFDSICNNKWFTETSIILFLNKKDLFEEKIKRSPLTICYPEYTGSNTYEEAAAYIQCQFEDLNRRKDTKEIYTHFTCATDTKNVQFVFDAVTDVIIKNNLKECGLY [chain 1 L249H] | 7.58
chain 1 MGCTLSAEDKAAVERSKMIDRNLREDGEKAAKEVKLLLLGAGESGKSTIVKQMKIIHEDGYSEDECKQYKVVVYSNTIQSIIAIIRAMGRLKIDFGEAARADDARQLFVLAGSAEEGVMTPELAGVIKRLWRDGGVQACFSRSREYQLNDSASYYLNDLDRISQSNYIPTQQDVLRTRVKTTGIVETHFTFKDLYFKMFDVGGQRSERKKWIHCFEGVTAIIFCVALSDYDLVLAEDEEMNRMHESMKVFDSICNNKWFTETSIILFLNKKDLFEEKIKRSPLTICYPEYTGSNTYEEAAAYIQCQFEDLNRRKDTKEIYTHFTCATDTKNVQFVFDAVTDVIIKNNLKECGLY [chain 1 L249V] | 2.35
chain 1 MGCTLSAEDKAAVERSKMIDRNLREDGEKAAKEVKLLLLGAGESGKSTIVKQMKIIHEDGYSEDECKQYKVVVYSNTIQSIIAIIRAMGRLKIDFGEAARADDARQLFVLAGSAEEGVMTPELAGVIKRLWRDGGVQACFSRSREYQLNDSASYYLNDLDRISQSNYIPTQQDVLRTRVKTTGIVETHFTFKDLYFKMFDVGGQRSERKKWIHCFEGVTAIIFCVALSDYDLVLAEDEEMNRMHESMKLFDSICNAKWFTETSIILFLNKKDLFEEKIKRSPLTICYPEYTGSNTYEEAAAYIQCQFEDLNRRKDTKEIYTHFTCATDTKNVQFVFDAVTDVIIKNNLKECGLY [chain 1 N256A] | 2.11
chain 1 MGCTLSAEDKAAVERSKMIDRNLREDGEKAAKEVKLLLLGAGESGKSTIVKQMKIIHEDGYSEDECKQYKVVVYSNTIQSIIAIIRAMGRLKIDFGEAARADDARQLFVLAGSAEEGVMTPELAGVIKRLWRDGGVQACFSRSREYQLNDSASYYLNDLDRISQSNYIPTQQDVLRTRVKTTGIVETHFTFKDLYFKMFDVGGQRSERKKWIHCFEGVTAIIFCVALSDYDLVLAEDEEMNRMHESMKLFDSICNNKFFTETSIILFLNKKDLFEEKIKRSPLTICYPEYTGSNTYEEAAAYIQCQFEDLNRRKDTKEIYTHFTCATDTKNVQFVFDAVTDVIIKNNLKECGLY [chain 1 W258F] | 3.59
chain 1 MGCTLSAEDKAAVERSKMIDRNLREDGEKAAKEVKLLLLGAGESGKSTIVKQMKIIHEDGYSEDECKQYKVVVYSNTIQSIIAIIRAMGRLKIDFGEAARADDARQLFVLAGSAEEGVMTPELAGVIKRLWRDGGVQACFSRSREYQLNDSASYYLNDLDRISQSNYIPTQQDVLRTRVKTTGIVETHFTFKDLYFKMFDVGGQRSERKKWIHCFEGVTAIIFCVALSDYDLVLAEDEEMNRMHESMKLFDAICNNKWFTETSIILFLNKKDLFEEKIKRSPLTICYPEYTGSNTYEEAAAYIQCQFEDLNRRKDTKEIYTHFTCATDTKNVQFVFDAVTDVIIKNNLKECGLY [chain 1 S252A] | 0.417
chain 1 MGCTLSAEDKAAVERSKMIDRNLREDGEKAAKEVKLLLLGAGESGKSTIVKQMKIIHEDGYSEDECKQYKVVVYSNTIQSIIAIIRAMGRLKIDFGEAARADDARQLFVLAGSAEEGVMTPELAGVIKRLWRDGGVQACFSRSREYQLNDSASYYLNDLDRISQSNYIPTQQDVLRTRVKTTGIVETHFTFKDLYFKMFDVGGQRSERKKWIHCFEGVTAIIFCVALSDYDLVLAEDEEMNRMHESMKLFDDICNNKWFTETSIILFLNKKDLFEEKIKRSPLTICYPEYTGSNTYEEAAAYIQCQFEDLNRRKDTKEIYTHFTCATDTKNVQFVFDAVTDVIIKNNLKECGLY [chain 1 S252D] | 5.32

Variants of: B2
Assay: fluorescence polarisation
Settings: with Fluorescein-labelled RGS12 GoLoco peptide (residues 1,185–1,221) [modified: 5,6-carboxyfluorescein coupled to the resin-bound peptide after chain elongation

Variant | ratio to parent | Kd [nM]
chain 1 MGCTLSAEDKAAVERSKMIDRNLREDGEKAAKEVKLLLLGAGESGKSTIVKQMKIIHEDGYSEDECKQYKVVVYSNTIQSIIAIIRAMGRLKIDFGEAARADDARQLFVLAGSAEEGVMTPELAGVIKRLWRDGGVQACFSRSREYQLNDSASYYLNDLDRISQSNYIPTQQDVLRTRVKTTGIVETHFTFKDLYFKMFDVGGQRSERKKWIHCFEGVTAIIFCVALSDYDLVLAEDEEMNRMHESMKLFDSICNNKFFTETSIILFLNKKDLFEEKIKRSPLTICYPEYTGSNTYEEAAAYIQCQFEDLNRRKDTKEIYTHFTCATDTKNVQFVFDAVTDVIIKNNLKECGLY [chain 1 W258F] | 1.15 | 
chain 1 MGCTLSAEDKAAVERSKMIDRNLREDGEKAAKEVKLLLLGAGESGKSTIVKQMKIIHEDGYSEDECKQYKVVVYSNTIQSIIAIIRAMGRLKIDFGEAARADDARQLFVLAGSAEEGVMTPELAGVIKRLWRDGGVQACFSRSREYQLNDSASYYLNDLDRISQSNYIPTQQDVLRTRVKTTGIVETHFTFKDLYFKMFDVGGQRSERKKWIHCFEGVTAIIFCVALSDYDLVLAEDEEMNRMHESMKLFDSICNNAWFTETSIILFLNKKDLFEEKIKRSPLTICYPEYTGSNTYEEAAAYIQCQFEDLNRRKDTKEIYTHFTCATDTKNVQFVFDAVTDVIIKNNLKECGLY [chain 1 K257A] | 1.58 | 
chain 1 MGCTLSAEDKAAVERSKMIDRNLREDGEKAAKEVKLLLLGARESGKSTIVKQMKIIHEDGYSEDECKQYKVVVYSNTIQSIIAIIRAMGRLKIDFGEAARADDARQLFVLAGSAEEGVMTPELAGVIKRLWRDGGVQACFSRSREYQLNDSASYYLNDLDRISQSNYIPTQQDVLRTRVKTTGIVETHFTFKDLYFKMFDVGGQRSERKKWIHCFEGVTAIIFCVALSDYDLVLAEDEEMNRMHESMKLFDSICNNKWFTETSIILFLNKKDLFEEKIKRSPLTICYPEYTGSNTYEEAAAYIQCQFEDLNRRKDTKEIYTHFTCATDTKNVQFVFDAVTDVIIKNNLKECGLY [chain 1 G42R] | 1.81 | 98
chain 1 MGCTLSAEDKAAVERSKMIDRNLREDGEKAAKEVKLLLLGAGESGKSTIVKQMKIIHEDGYSEDECKQYKVVVYSNTIQSIIAIIRAMGRLKIDFGEAARADDARQLFVLAGSAEEGVMTPELAGVIKRLWRDGGVQACFSRSREYQLNDSASYYLNDLDRISQSNYIPTQQDVLRTRVKTTGIVETHFTFKDLYFKMFDVGGQRSERKKWIHCFEGVTAIIFCVALSDYDLVLAEDEEMNRMHESMKHFDSICNNKWFTETSIILFLNKKDLFEEKIKRSPLTICYPEYTGSNTYEEAAAYIQCQFEDLNRRKDTKEIYTHFTCATDTKNVQFVFDAVTDVIIKNNLKECGLY [chain 1 L249H] | 4.89 | 
chain 1 MGCTLSAEDKAAVERSKMIDRNLREDGEKAAKEVKLLLLGAGESGKSTIVKQMKIIHEDGYSEDECKQYKVVVYSNTIQSIIAIIRAMGRLKIDFGEAARADDARQLFVLAGSAEEGVMTPELAGVIKRLWRDGGVQACFSRSREYQLNDSASYYLNDLDRISQSNYIPTQQDVLRTRVKTTGIVETHFTFKDLYFKMFDVGGQRSERKKWIHCAEGVTAIIFCVALSDYDLVLAEDEEMNRMHESMKLFDSICNNKWFTETSIILFLNKKDLFEEKIKRSPLTICYPEYTGSNTYEEAAAYIQCQFEDLNRRKDTKEIYTHFTCATDTKNVQFVFDAVTDVIIKNNLKECGLY [chain 1 F215A] | 10.1 | 
chain 1 MGCTLSAEDKAAVERSKMIDRNLREDGEKAAKEVKLLLLGAGESGKSTIVKQMKIIHEDGYSEDECKQYKVVVYSNTIQSIIAIIRAMGRLKIDFGEAARADDARQLFVLAGSAEEGVMTPELAGVIKRLWRDGGVQACFSRSREYQLNDSASYYLNDLDRISQSNYIPTQQDVLRTRVKTTGIVETHFTFKDLYFKMFDVGGQRSERKKWIHCFEGVTAIIFCVALSDYDLVLAEDEEMNRMHESMKLFDAICNNKWFTETSIILFLNKKDLFEEKIKRSPLTICYPEYTGSNTYEEAAAYIQCQFEDLNRRKDTKEIYTHFTCATDTKNVQFVFDAVTDVIIKNNLKECGLY [chain 1 S252A] | 0.644 | 

Variants of: B3
Assay: fluorescence polarisation
Settings: with Fluorescein-labelled DAPLE peptide (residues 1,662–1,695) [modified: 5,6-carboxyfluorescein coupled to the resin-bound peptide after chain elongation

Variant | ratio to parent
chain 1 MGCTLSAEDKAAVERSKMIDRNLREDGEKAAKEVKLLLLGAGESGKSTIVKQMKIIHEDGYSEDECKQYKVVVYSNTIQSIIAIIRAMGRLKIDFGEAARADDARQLFVLAGSAEEGVMTPELAGVIKRLWRDGGVQACFSRSREYQLNDSASYYLNDLDRISQSNYIPTQQDVLRTRVKTTGIVETHFTFKDLYFKMFDVGGQRSERKKWIHCFEGVTAIIFCVALSDYDLVLAEDEEMNRMHESMKLFDSICNNKWATETSIILFLNKKDLFEEKIKRSPLTICYPEYTGSNTYEEAAAYIQCQFEDLNRRKDTKEIYTHFTCATDTKNVQFVFDAVTDVIIKNNLKECGLY [chain 1 F259A] | 2
